Laboratory results as given in patent US20230406950A1 (LYVGEN BIOPHARMA, published 2023).
Read-outs that look alike come from different tables or passages of the source.

T1: human GITR expressed on cells (human, UniProt Q9Y5U5 26-241)
T1 construct: whole, on cells; also called TNFRSF18; CD357
T1 sequence (looked up): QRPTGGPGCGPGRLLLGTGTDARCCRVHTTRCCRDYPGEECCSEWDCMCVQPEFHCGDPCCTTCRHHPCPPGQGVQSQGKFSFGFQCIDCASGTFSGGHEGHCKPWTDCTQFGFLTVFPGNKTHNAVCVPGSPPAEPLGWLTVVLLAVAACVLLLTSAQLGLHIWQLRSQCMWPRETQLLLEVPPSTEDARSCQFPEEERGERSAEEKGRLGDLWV


How the values were obtained:
[1] = target: T2, human CD137 expressed on cells (human, UniProt Q07011 24-255); assay: FACS on CHO cells expressing human CD137 (MFI)
T2 construct: whole, on cells; also called 4-1BB; TNFRSF9
T2 sequence (Q07011 24-255): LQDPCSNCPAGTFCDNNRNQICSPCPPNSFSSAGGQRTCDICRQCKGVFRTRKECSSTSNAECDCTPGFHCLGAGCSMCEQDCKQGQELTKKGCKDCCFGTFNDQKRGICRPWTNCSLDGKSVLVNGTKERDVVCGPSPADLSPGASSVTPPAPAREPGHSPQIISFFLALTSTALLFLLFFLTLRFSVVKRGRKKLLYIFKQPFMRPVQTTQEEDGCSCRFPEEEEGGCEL
Procedure: (§1) Anti-GITR/CD137 bi-specific antibodies were analyzed by FACS for their binding properties to human GITR and/or human CD137 expressed on CHO cells. Briefly, cultured cells were harvested, counted and cell viability was evaluated using the Trypan Blue exclusion method. Viable cells were then adjusted to 2×10⁶ cells per mL in PBS containing 2% BSA. 100 μL of this cell suspension were further aliquoted per well into a V-bottom 96-well plate. […] After incubation for 2 hours at 4° C., cells were centrifuged (3 min, 1000× g), washed with 250 μL/well BSA-containing FACS Stain Buffer, resuspended and incubated for an additional 1 hour at 4° C. with 100 μL/well fluorochrome-conjugated anti-IgG antibody for detection of the bisepecific antibody. Cells were then washed with 250 μL/well BSA-containing FACS Stain Buffer, resuspended in 100 μL/well FACS Stain Buffer, acquired and analyzed using a FACS machine. Binding of the bispecific antibodies to human GITR or human CD137 expressing CHO cells were evaluated and the mean fluorescence intensity is plotted in histograms or dot plots.

[2] = target: T1, human GITR expressed on cells; assay: flow cytometry (FACS), MFI, CHO cells expressing human GITR
Procedure: as §1

[3] = target: T3, human CD40 expressed on CHO cells (human, UniProt P25942 21-277); assay: FACS on CHO cells expressing human CD40 (MFI)
T3 construct: whole, on cells
T3 sequence (P25942 21-277): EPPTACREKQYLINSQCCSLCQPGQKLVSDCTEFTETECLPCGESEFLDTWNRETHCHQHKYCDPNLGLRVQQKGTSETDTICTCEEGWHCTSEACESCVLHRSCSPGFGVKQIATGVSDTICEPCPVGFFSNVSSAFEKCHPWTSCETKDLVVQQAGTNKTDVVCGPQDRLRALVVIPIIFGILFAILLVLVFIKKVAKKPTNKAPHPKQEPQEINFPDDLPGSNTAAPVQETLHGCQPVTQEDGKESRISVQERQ
Procedure: as §1, with “Anti-CD40/CD137” for “Anti-GITR/CD137”, “CD40” for “GITR”, “1000×g),” for “1000× g),”

[4] = target: T2, human CD137 expressed on cells; assay: FACS on CHO cells expressing human CD137 (MFI); remark: listed apart in the source
Procedure: as §1, with “Anti-CD40/CD137” for “Anti-GITR/CD137”, “CD40” for “GITR”, “1000×g),” for “1000× g),”

EC50 (read off the curve) [1] [µg/mL]	binding result [3]	EC50 (read off the curve) [4] [µg/mL]	Binder	further results
~0.4			Ly752 (bispecific antibody, human IgG1, kappa, Anti-GITR/CD137: TM677-derived heavy chain; TM677 light chain fused to Ly1630 scFv (VL-VH)) heavy: QVQLQESGPGLVKPSETLSLTCTVSGFSLTSYNVHWIRQPPGKGLEWIGVIWSGVRTDYNSVLKSRVTISVDTSKNQFSLKLSSVTAADTAVYYCARGTYDANYHDVMDAWGQGTMVTVSSASTKGPSVFPLAPSSKSTSGGTAALGCLVKDYFPEPVTVSWNSGALTSGVHTFPAVLQSSGLYSLSSVVTVPSSSLGTQTYICNVNHKPSNTKVDKKVEPKSCDKTHTCPPCPAPELLGPSVFLFPPKPKDTLMISRTPEVTCVVVDVSHEDPEVKFNWYVDGVEVHNAKTKPREEQYNSTYRVVSVLTVLHQDWLNGKEYKCKVSNKALPAPIEKTISKAKGQPREPQVYTLPPSREEMTKNQVSLTCLVKGFYPSDIAVEWESNGQPENNYKTTPPVLDSDGSFFLYSKLTVDKSRWQQGNVFSCSVMHEALHNHYTQKSLSLSPGK light: DTVLTQSPATLSLSPGERATLSCRASKSVRTGMHWYQQKPGQAPRLLVYGASNLESGIPARFSGSGSGTDFTLTISSLEPEDFATYFCHQSWNHFTFGQGTKLEIKRTVAAPSVFIFPPSDEQLKSGTASVVCLLNNFYPREAKVQWKVDNALQSGNSQESVTEQDSKDSTYSLSSTLTLSKADYEKHKVYACEVTHQGLSSPVTKSFNRGECGGGGSGGGGSGGGGSGGGGSDIQMTQSPSSLSASVGDRVTITCRASQDIRSNLNWYQQKPGGAVKLLIYYTSRLHSGVPSRFSGSGSGTDYTLTISSLQPEDFATYFCQQSEKLPRTFGGGTKVEIRGGGGSGGGGSGGGGSGGGGSQVQLVQSGAEVKKPGASVKVSCKASGYTFAGFEMHWVRQAPGQGLEWMGAIDPKTGGTDYNQKFKDRVTMTRDTSISTAYMELSRLRSDDTAVYYCARDLGYFDVWGQGTLVTVSS	
~0.7			Ly753 (bispecific antibody, human IgG1, kappa, Anti-GITR/CD137: TM677-derived heavy chain; TM677 light chain fused to Ly1630 scFv (VH-VL)) heavy: QVQLQESGPGLVKPSETLSLTCTVSGFSLTSYNVHWIRQPPGKGLEWIGVIWSGVRTDYNSVLKSRVTISVDTSKNQFSLKLSSVTAADTAVYYCARGTYDANYHDVMDAWGQGTMVTVSSASTKGPSVFPLAPSSKSTSGGTAALGCLVKDYFPEPVTVSWNSGALTSGVHTFPAVLQSSGLYSLSSVVTVPSSSLGTQTYICNVNHKPSNTKVDKKVEPKSCDKTHTCPPCPAPELLGPSVFLFPPKPKDTLMISRTPEVTCVVVDVSHEDPEVKFNWYVDGVEVHNAKTKPREEQYNSTYRVVSVLTVLHQDWLNGKEYKCKVSNKALPAPIEKTISKAKGQPREPQVYTLPPSREEMTKNQVSLTCLVKGFYPSDIAVEWESNGQPENNYKTTPPVLDSDGSFFLYSKLTVDKSRWQQGNVFSCSVMHEALHNHYTQKSLSLSPGK light: DTVLTQSPATLSLSPGERATLSCRASKSVRTGMHWYQQKPGQAPRLLVYGASNLESGIPARFSGSGSGTDFTLTISSLEPEDFATYFCHQSWNHFTFGQGTKLEIKRTVAAPSVFIFPPSDEQLKSGTASVVCLLNNFYPREAKVQWKVDNALQSGNSQESVTEQDSKDSTYSLSSTLTLSKADYEKHKVYACEVTHQGLSSPVTKSFNRGECGGGGSGGGGSGGGGSGGGGSQVQLVQSGAEVKKPGASVKVSCKASGYTFAGFEMHWVRQAPGQGLEWMGAIDPKTGGTDYNQKFKDRVTMTRDTSISTAYMELSRLRSDDTAVYYCARDLGYFDVWGQGTLVTVSSGGGGSGGGGSGGGGSGGGGSDIQMTQSPSSLSASVGDRVTITCRASQDIRSNLNWYQQKPGGAVKLLIYYTSRLHSGVPSRFSGSGSGTDYTLTISSLQPEDFATYFCQQSEKLPRTFGGGTKVEIR	
~0.2			Ly754 (bispecific antibody, human IgG1, kappa, Anti-GITR/CD137: Ly1630 heavy chain fused to TM685 scFv (VL-VH); Ly1630 light chain) heavy: QVQLVQSGAEVKKPGASVKVSCKASGYTFAGFEMHWVRQAPGQGLEWMGAIDPKTGGTDYNQKFKDRVTMTRDTSISTAYMELSRLRSDDTAVYYCARDLGYFDVWGQGTLVTVSSASTKGPSVFPLAPSSKSTSGGTAALGCLVKDYFPEPVTVSWNSGALTSGVHTFPAVLQSSGLYSLSSVVTVPSSSLGTQTYICNVNHKPSNTKVDKKVEPKSCDKTHTCPPCPAPELLGPSVFLFPPKPKDTLMISRTPEVTCVVVDVSHEDPEVKFNWYVDGVEVHNAKTKPREEQYNSTYRVVSVLTVLHQDWLNGKEYKCKVSNKALPAPIEKTISKAKGQPREPQVYTLPPSREEMTKNQVSLTCLVKGFYPSDIAVEWESNGQPENNYKTTPPVLDSDGSFFLYSKLTVDKSRWQQGNVFSCSVMHEALHNHYTQKSLSLSPGGGGGSGGGGSGGGGSGGGGSEIVLTQSPATLSLSPGERATLSCRASKSVRTGMHWYQQKPGQAPRLLIYGASNLESGIPARFSGSGSGTDFTLTISSLEPEDFAVYYCQQSWNHFTFGQGTKLEIKGGGGSGGGGSGGGGSGGGGSQVQLQESGPGLVKPSETLSLTCTVSGFSLTSYNVHWIRQPPGKGLEWIGVIWSGVRTDYNSVLKPRVTISVDTSKNQFSLKLSSVTAADTAVYYCARGTYDDNYHDVMDAWGQGTLVTVSS light: DIQMTQSPSSLSASVGDRVTITCRASQDIRSNLNWYQQKPGGAVKLLIYYTSRLHSGVPSRFSGSGSGTDYTLTISSLQPEDFATYFCQQSEKLPRTFGGGTKVEIRRTVAAPSVFIFPPSDEQLKSGTASVVCLLNNFYPREAKVQWKVDNALQSGNSQESVTEQDSKDSTYSLSSTLTLSKADYEKHKVYACEVTHQGLSSPVTKSFNRGEC	
			TM677 (antibody, human IgG1, kappa, V domains shown, Humanized anti-GITR antibody with VL back mutations; also called humanized LYV392 antibody (VH-1/IgG1 mut, VL-2/kappa)) VH: QVQLQESGPGLVKPSETLSLTCTVSGFSLTSYNVHWIRQPPGKGLEWIGVIWSGVRTDYNSVLKSRVTISVDTSKNQFSLKLSSVTAADTAVYYCARGTYDANYHDVMDAWGQGTMVTVSS VL: DTVLTQSPATLSLSPGERATLSCRASKSVRTGMHWYQQKPGQAPRLLVYGASNLESGIPARFSGSGSGTDFTLTISSLEPEDFATYFCHQSWNHFTFGQGTKLEIKR	EC50 (read off the curve) [2]: ~0.7 µg/mL
			TM685 (antibody, human IgG1, kappa, V domains shown, Humanized anti-GITR antibody; also called humanized LYV396 antibody (LYV396_VH-1/IgG1mut, LYV396_VL-1/kappa)) VH: QVQLQESGPGLVKPSETLSLTCTVSGFSLTSYNVHWIRQPPGKGLEWIGVIWSGVRTDYNSVLKPRVTISVDTSKNQFSLKLSSVTAADTAVYYCARGTYDDNYHDVMDAWGQGTLVTVSS VL: EIVLTQSPATLSLSPGERATLSCRASKSVRTGMHWYQQKPGQAPRLLIYGASNLESGIPARFSGSGSGTDFTLTISSLEPEDFAVYYCQQSWNHFTFGQGTKLEIKR	EC50 (read off the curve) [2]: ~0.7 µg/mL
	binds	~0.2	Ly745 (bispecific antibody, human IgG1, kappa, Anti-CD40/CD137: Ly253-derived heavy chain; Ly253 light chain fused to Ly1630 scFv (VH-VL)) heavy: not shown light: DIQMTQSPSSVSASVGDRVTITCRASQGIYSWLAWYQQKPGKAPNLLIYTASTLQSGVPSRFSGSGSGTDFTLTISSLQPEDFATYYCQQANIFPLTFGGGTKVEIKRTVAAPSVFIFPPSDEQLKSGTASVVCLLNNFYPREAKVQWKVDNALQSGNSQESVTEQDSKDSTYSLSSTLTLSKADYEKHKVYACEVTHQGLSSPVTKSFNRGECGGGGSGGGGSGGGGSGGGGSQVQLVQSGAEVKKPGASVKVSCKASGYTFAGFEMHWVRQAPGQGLEWMGAIDPKTGGTDYNQKFKDRVTMTRDTSISTAYMELSRLRSDDTAVYYCARDLGYFDVWGQGTLVTVSSGGGGSGGGGSGGGGSGGGGSDIQMTQSPSSLSASVGDRVTITCRASQDIRSNLNWYQQKPGGAVKLLIYYTSRLHSGVPSRFSGSGSGTDYTLTISSLQPEDFATYFCQQSEKLPRTFGGGTKVEIR	
	binds	~0.1	Ly743 (bispecific antibody, human IgG1, kappa, Anti-CD40/CD137: Ly253-derived heavy chain fused to Ly1630 scFv (VH-VL); Ly253 light chain) heavy: not shown light: DIQMTQSPSSVSASVGDRVTITCRASQGIYSWLAWYQQKPGKAPNLLIYTASTLQSGVPSRFSGSGSGTDFTLTISSLQPEDFATYYCQQANIFPLTFGGGTKVEIKRTVAAPSVFIFPPSDEQLKSGTASVVCLLNNFYPREAKVQWKVDNALQSGNSQESVTEQDSKDSTYSLSSTLTLSKADYEKHKVYACEVTHQGLSSPVTKSFNRGEC	
	binds	~0.1	Ly744 (bispecific antibody, human IgG1, kappa, Anti-CD40/CD137: Ly253-derived heavy chain; Ly253 light chain fused to Ly1630 scFv (VL-VH)) heavy: not shown light: DIQMTQSPSSVSASVGDRVTITCRASQGIYSWLAWYQQKPGKAPNLLIYTASTLQSGVPSRFSGSGSGTDFTLTISSLQPEDFATYYCQQANIFPLTFGGGTKVEIKRTVAAPSVFIFPPSDEQLKSGTASVVCLLNNFYPREAKVQWKVDNALQSGNSQESVTEQDSKDSTYSLSSTLTLSKADYEKHKVYACEVTHQGLSSPVTKSFNRGECGGGGSGGGGSGGGGSGGGGSDIQMTQSPSSLSASVGDRVTITCRASQDIRSNLNWYQQKPGGAVKLLIYYTSRLHSGVPSRFSGSGSGTDYTLTISSLQPEDFATYFCQQSEKLPRTFGGGTKVEIRGGGGSGGGGSGGGGSGGGGSQVQLVQSGAEVKKPGASVKVSCKASGYTFAGFEMHWVRQAPGQGLEWMGAIDPKTGGTDYNQKFKDRVTMTRDTSISTAYMELSRLRSDDTAVYYCARDLGYFDVWGQGTLVTVSS	
